Sequences and labels used below:
T1: human calcitonin receptor (human, UniProt P30988 25-474)
T1 construct: whole, on cells; Assayed as cell membranes of BHK tk'ts 13 cells stably transfected with the human calcitonin receptor (Assay VII); also called hCTR; hCT
T1 sequence (looked up): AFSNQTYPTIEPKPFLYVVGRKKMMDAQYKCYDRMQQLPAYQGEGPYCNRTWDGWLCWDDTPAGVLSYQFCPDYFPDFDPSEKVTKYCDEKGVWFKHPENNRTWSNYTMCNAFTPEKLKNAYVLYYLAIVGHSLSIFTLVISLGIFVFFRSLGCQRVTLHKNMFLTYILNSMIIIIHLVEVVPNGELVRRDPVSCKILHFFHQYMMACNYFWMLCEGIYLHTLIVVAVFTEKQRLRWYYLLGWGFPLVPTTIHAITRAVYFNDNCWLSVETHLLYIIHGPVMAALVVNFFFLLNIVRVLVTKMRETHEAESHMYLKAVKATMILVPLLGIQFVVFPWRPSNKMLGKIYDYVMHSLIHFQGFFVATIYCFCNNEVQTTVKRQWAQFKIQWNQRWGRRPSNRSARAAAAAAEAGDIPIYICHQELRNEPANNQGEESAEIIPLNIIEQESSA

B1: N^ε1-[2-[2-[2-[[(4S)-4-carboxy-4-(19-carboxynonadecanoylamino)butanoyl]amino]ethoxy]ethoxy]acetyl]-[Arg17,Pro21,Pro27,His34]-h-amylin (peptide)
peptide: K([AEEA-γGlu-C20 diacid])CNTATCATQRLANFLRHSSPNFGAIPSSTNVGHNTY-NH2
modifications: disulfide 2-7; N-terminus assumed
SMILES: CC[C@H](C)[C@H](NC(=O)[C@H](C)NC(=O)CNC(=O)[C@H](Cc1ccccc1)NC(=O)[C@H](CC(N)=O)NC(=O)[C@@H]1CCCN1C(=O)[C@H](CO)NC(=O)[C@H](CO)NC(=O)[C@H](Cc1c[nH]cn1)NC(=O)[C@H](CCCNC(=N)N)NC(=O)[C@H](CC(C)C)NC(=O)[C@H](Cc1ccccc1)NC(=O)[C@H](CC(N)=O)NC(=O)[C@H](C)NC(=O)[C@H](CC(C)C)NC(=O)[C@H](CCCNC(=N)N)NC(=O)[C@H](CCC(N)=O)NC(=O)[C@@H](NC(=O)[C@H](C)NC(=O)[C@@H]1CSSC[C@H](NC(=O)[C@@H](N)CCCCNC(=O)COCCOCCNC(=O)CC[C@H](NC(=O)CCCCCCCCCCCCCCCCCCC(=O)O)C(=O)O)C(=O)N[C@@H](CC(N)=O)C(=O)N[C@@H]([C@@H](C)O)C(=O)N[C@@H](C)C(=O)N[C@@H]([C@@H](C)O)C(=O)N1)[C@@H](C)O)C(=O)N1CCC[C@H]1C(=O)N[C@@H](CO)C(=O)N[C@@H](CO)C(=O)N[C@H](C(=O)N[C@@H](CC(N)=O)C(=O)N[C@H](C(=O)NCC(=O)N[C@@H](Cc1c[nH]cn1)C(=O)N[C@@H](CC(N)=O)C(=O)N[C@H](C(=O)N[C@@H](Cc1ccc(O)cc1)C(N)=O)[C@@H](C)O)C(C)C)[C@@H](C)O
notes: also called compound 76
B2: N^ε1-[2-[2-[2-[[(4S)-4-carboxy-4-(19-carboxynonadecanoylamino)butanoyl]amino]ethoxy]ethoxy]acetyl]-[Arg17,Pro21,Pro27,Pro29,Pro34]-h-amylin (peptide)
peptide: K([AEEA-γGlu-C20 diacid])CNTATCATQRLANFLRHSSPNFGAIPSPTNVGPNTY-NH2
modifications: disulfide 2-7; N-terminus assumed
SMILES: CC[C@H](C)[C@H](NC(=O)[C@H](C)NC(=O)CNC(=O)[C@H](Cc1ccccc1)NC(=O)[C@H](CC(N)=O)NC(=O)[C@@H]1CCCN1C(=O)[C@H](CO)NC(=O)[C@H](CO)NC(=O)[C@H](Cc1c[nH]cn1)NC(=O)[C@H](CCCNC(=N)N)NC(=O)[C@H](CC(C)C)NC(=O)[C@H](Cc1ccccc1)NC(=O)[C@H](CC(N)=O)NC(=O)[C@H](C)NC(=O)[C@H](CC(C)C)NC(=O)[C@H](CCCNC(=N)N)NC(=O)[C@H](CCC(N)=O)NC(=O)[C@@H](NC(=O)[C@H](C)NC(=O)[C@@H]1CSSC[C@H](NC(=O)[C@@H](N)CCCCNC(=O)COCCOCCNC(=O)CC[C@H](NC(=O)CCCCCCCCCCCCCCCCCCC(=O)O)C(=O)O)C(=O)N[C@@H](CC(N)=O)C(=O)N[C@@H]([C@@H](C)O)C(=O)N[C@@H](C)C(=O)N[C@@H]([C@@H](C)O)C(=O)N1)[C@@H](C)O)C(=O)N1CCC[C@H]1C(=O)N[C@@H](CO)C(=O)N1CCC[C@H]1C(=O)N[C@H](C(=O)N[C@@H](CC(N)=O)C(=O)N[C@H](C(=O)NCC(=O)N1CCC[C@H]1C(=O)N[C@@H](CC(N)=O)C(=O)N[C@H](C(=O)N[C@@H](Cc1ccc(O)cc1)C(N)=O)[C@@H](C)O)C(C)C)[C@@H](C)O
notes: also called compound 56
B3: N^ε1-[2-[2-[2-[[(4S)-4-carboxy-4-(19-carboxynonadecanoylamino)butanoyl]amino]ethoxy]ethoxy]acetyl]-[Arg17,Pro21,Pro27,Pro28,Pro34]-h-amylin (peptide)
peptide: K([AEEA-γGlu-C20 diacid])CNTATCATQRLANFLRHSSPNFGAIPPSTNVGPNTY-NH2
modifications: disulfide 2-7; N-terminus assumed
SMILES: CC[C@H](C)[C@H](NC(=O)[C@H](C)NC(=O)CNC(=O)[C@H](Cc1ccccc1)NC(=O)[C@H](CC(N)=O)NC(=O)[C@@H]1CCCN1C(=O)[C@H](CO)NC(=O)[C@H](CO)NC(=O)[C@H](Cc1c[nH]cn1)NC(=O)[C@H](CCCNC(=N)N)NC(=O)[C@H](CC(C)C)NC(=O)[C@H](Cc1ccccc1)NC(=O)[C@H](CC(N)=O)NC(=O)[C@H](C)NC(=O)[C@H](CC(C)C)NC(=O)[C@H](CCCNC(=N)N)NC(=O)[C@H](CCC(N)=O)NC(=O)[C@@H](NC(=O)[C@H](C)NC(=O)[C@@H]1CSSC[C@H](NC(=O)[C@@H](N)CCCCNC(=O)COCCOCCNC(=O)CC[C@H](NC(=O)CCCCCCCCCCCCCCCCCCC(=O)O)C(=O)O)C(=O)N[C@@H](CC(N)=O)C(=O)N[C@@H]([C@@H](C)O)C(=O)N[C@@H](C)C(=O)N[C@@H]([C@@H](C)O)C(=O)N1)[C@@H](C)O)C(=O)N1CCC[C@H]1C(=O)N1CCC[C@H]1C(=O)N[C@@H](CO)C(=O)N[C@H](C(=O)N[C@@H](CC(N)=O)C(=O)N[C@H](C(=O)NCC(=O)N1CCC[C@H]1C(=O)N[C@@H](CC(N)=O)C(=O)N[C@H](C(=O)N[C@@H](Cc1ccc(O)cc1)C(N)=O)[C@@H](C)O)C(C)C)[C@@H](C)O
notes: also called compound 55
B4: N^ε1-[2-[2-[2-[[(4S)-4-carboxy-4-(19-carboxynonadecanoylamino)butanoyl]amino]ethoxy]ethoxy]acetyl]-[Arg17,Pro21,Pro27,Pro29,Pro31]-h-amylin (peptide)
peptide: K([AEEA-γGlu-C20 diacid])CNTATCATQRLANFLRHSSPNFGAIPSPTPVGSNTY-NH2
modifications: disulfide 2-7; N-terminus assumed
SMILES: CC[C@H](C)[C@H](NC(=O)[C@H](C)NC(=O)CNC(=O)[C@H](Cc1ccccc1)NC(=O)[C@H](CC(N)=O)NC(=O)[C@@H]1CCCN1C(=O)[C@H](CO)NC(=O)[C@H](CO)NC(=O)[C@H](Cc1c[nH]cn1)NC(=O)[C@H](CCCNC(=N)N)NC(=O)[C@H](CC(C)C)NC(=O)[C@H](Cc1ccccc1)NC(=O)[C@H](CC(N)=O)NC(=O)[C@H](C)NC(=O)[C@H](CC(C)C)NC(=O)[C@H](CCCNC(=N)N)NC(=O)[C@H](CCC(N)=O)NC(=O)[C@@H](NC(=O)[C@H](C)NC(=O)[C@@H]1CSSC[C@H](NC(=O)[C@@H](N)CCCCNC(=O)COCCOCCNC(=O)CC[C@H](NC(=O)CCCCCCCCCCCCCCCCCCC(=O)O)C(=O)O)C(=O)N[C@@H](CC(N)=O)C(=O)N[C@@H]([C@@H](C)O)C(=O)N[C@@H](C)C(=O)N[C@@H]([C@@H](C)O)C(=O)N1)[C@@H](C)O)C(=O)N1CCC[C@H]1C(=O)N[C@@H](CO)C(=O)N1CCC[C@H]1C(=O)N[C@H](C(=O)N1CCC[C@H]1C(=O)N[C@H](C(=O)NCC(=O)N[C@@H](CO)C(=O)N[C@@H](CC(N)=O)C(=O)N[C@H](C(=O)N[C@@H](Cc1ccc(O)cc1)C(N)=O)[C@@H](C)O)C(C)C)[C@@H](C)O
notes: also called compound 54

One may read the IC50 as the concentration at which inhibition is half-maximal.

Numbered stars: 1 amine (or outer) side, 2 acyl side, 3 side chain; on linkers, the order of the positions; unused ones are H or OH. Bridge positions count the residues as written; N and C are the ends. Side chains are listed from the residue outwards. Ends that are not written are not given here. * marks the point of attachment. C20 diacid = O=C(O)CCCCCCCCCCCCCCCCCCC(=O)*; γGlu = O=C(O)[C@H](CCC(=O)[*:2])N[*:1]; AEEA = NCCOCCOCC(=O)O

The first test has as its target T1, human calcitonin receptor. The test is described as follows: SPA competition vs 125I-calcitonin, membranes of BHK cells with human calcitonin receptor (Assay VII). Summed up:
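BHK hCTR membranes 35 ng/μL + SPA beads 0.05 mg/well; buffer 50 mM Hepes pH 7.4, 1 mM CaCl2, 5 mM MgCl₂, 0.1% OA, 0.02% Tween20. 120 min, 25° C., shaking. Scintillation count; IC50 by one-site binding competition.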
Take B1: the IC50 is 17.2 nM.
With B2, the IC50 was found to be 2.09 nM.
Regarding K([AEEA-γGlu-C20 diacid])CNTATCATQRLANFLRHSSPNFGAIPPSTPVGSNTY-NH2 (disulfide 2-7, also called compound 53), the IC50 was found to be 5.38 nM.
As for B3, the IC50 turned out to be 2.17 nM.
In the case of B4, the IC50 was 4.38 nM.

In the next test the target is T1, human calcitonin receptor. Nature of the test: IC50 at hCTR divided by IC50 at hAmylin-R (SPA competition assays V and VII). Summed up:
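Competition binding by SPA with cell membranes (35 ng/μL) and SPA beads in 50 mM Hepes pH 7.4 with 1 mM CaCl2, 5 mM MgCl2, 0.1% OA and 0.02% Tween20. Incubated 120 min at 25 °C with shaking, then counted.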
On to B1, for which the “Ratio hCT/hAmylin binding” value is 80.
B2: the “Ratio hCT/hAmylin binding” value came out at 42.6.
The same measure, in the same setting: under K([AEEA-γGlu-C20 diacid])CNTATCATQRLANFLRHSSPNFGAIPPSTPVGSNTY-NH2 (disulfide 2-7, also called compound 53) stands 104.
As for B3, the “Ratio hCT/hAmylin binding” value was found to be 51.8.
With B4, the “Ratio hCT/hAmylin binding” value amounted to 146.

Values taken from patent publication US20140087995A1 (published 2014).
